Consider 2 substances from PMC6797443, “Experimental characterization of two archaeal inosine 5'-monophosphate cyclohydrolases” (PLoS ONE, 2019).

Data set [1] relates to NC(=O)c1ncn([C@@H]2O[C@H](COP(=O)(O)O)[C@@H](O)[C@H]2O)c1NC=O. Description: purified protein. The data set is classed as biochemical, Archaeoglobus fulgidus. The note with it: 0.050 M Tris, pH 7.3, 50°C, MBP fusion.
Data set [2] has the same test system. Description: purified protein. The data set is classed as biochemical, Thermococcus kodakarensis. The note with it: 0.050 M Tris, pH 7.3, 50°C, MBP fusion.

As for “AF1811 (Archaeoglobus fulgidus PurH2) (Archaeoglobus fulgidus DSM 4304)”, in data set [1], the Km (commonly the concentration of substrate that gives half-maximal velocity) was determined as 7.8 ± 1.8 µM; the kcat – broadly, the number of substrate molecules converted per active site and unit of time at saturation – is 1.32 ± 0.14 s⁻¹.

As for “TK0430 (Thermococcus kodakarensis PurO) (Thermococcus kodakarensis KOD1)”, in data set [2], the Km was 1.56 ± 0.39 µM and the kcat was determined as 0.48 ± 0.04 s⁻¹.
